Experimental findings from patent US6106823 are described below.

The assay addresses CD3 (human).

For anti-CD3 mAb SPV-T3b (antibody), the lymphokine production (IL-2, ng/ml) by T cell clone 827 with CD3 + TPA worked out at 10.6 ng/mL.
